“Also recorded” adds a separate entry of the source.
How the values were obtained:
[1] = target: T1, APC activation by CDH1 (Homo sapiens, UniProt P30260+Q9UJX3); assay: In vitro ubiquitination assay with [125I]-labelled cyclin B as substrate; assay type: biochemical; details: APC loaded with recombinant CDH1 in presence of peptide at 1 mg/ml, cyclin B fragment substrate
T1 construct: endogenous in cells; host or cells: APC immunopurified from HeLa cell extracts; CDH1 and cyclin B fragment recombinant
Method: (§1) Immunopurified holo-APC or subcomplexes were washed and incubated with purified recombinant CDH1 (0.5-1.0 μg per 10 μl bead volume) in TBS/T, or with insect cell lysates in TBS/T containing recombinant CDH1 proteins as indicated. Peptides for competition were used at 1 mg/ml, with the addition of 0.5 mM DTT to the buffer. Subsequently, bead-bound complexes were washed 3× with TBS/T and immunoblotted for binding of CDH1 or used in ubiquitination assays. In vitro ubiquitination reactions were performed as described (Kramer, E. R., et al., Curr Biol 8:1207-10 (1998)). Securin-myc-his substrate was detected by immunoblotting with monoclonal anti-Myc 9E10 antibodies. Alternatively, an iodinated N-terminal recombinant fragment of sea urchin cyclin B (amino acids 13-110) was used and visualized by autoradiography (Gieffers, C., et al., Mol Cell 7:907-13 (2001)).
(§2) What are the mechanistic consequences of the observed interactions between IR tail peptides and APC subunits? To address this, it was tested if the peptides would influence APC activity in in vitro ubiquitination assays. Immunopurified APC was loaded with recombinant CDH1 in the presence or absence of IR-tail or control peptides, washed, and used to ubiquitinate a radioactively labeled fragment of cyclin B (FIG. 6B). […] In contrast, an N-terminal CDC20 peptide had no effect on APC activation.

[2] = target: T2, APC7 (Homo sapiens, UniProt Q9UJX3); assay: Peptide binding assay (matrix-coupled peptides), APC7 and APC7 fragments; details: for binding of recombinant APC7 to matrix-coupled peptide: recombinant APC7 in insect cell lysates, western blot
T2 construct: HisHA; made in house; host or cells: Sf9 or Hi5 insect cells (baculovirus), used as lysate
T2 sequence (Q9UJX3 whole entry, the tested form may be a part): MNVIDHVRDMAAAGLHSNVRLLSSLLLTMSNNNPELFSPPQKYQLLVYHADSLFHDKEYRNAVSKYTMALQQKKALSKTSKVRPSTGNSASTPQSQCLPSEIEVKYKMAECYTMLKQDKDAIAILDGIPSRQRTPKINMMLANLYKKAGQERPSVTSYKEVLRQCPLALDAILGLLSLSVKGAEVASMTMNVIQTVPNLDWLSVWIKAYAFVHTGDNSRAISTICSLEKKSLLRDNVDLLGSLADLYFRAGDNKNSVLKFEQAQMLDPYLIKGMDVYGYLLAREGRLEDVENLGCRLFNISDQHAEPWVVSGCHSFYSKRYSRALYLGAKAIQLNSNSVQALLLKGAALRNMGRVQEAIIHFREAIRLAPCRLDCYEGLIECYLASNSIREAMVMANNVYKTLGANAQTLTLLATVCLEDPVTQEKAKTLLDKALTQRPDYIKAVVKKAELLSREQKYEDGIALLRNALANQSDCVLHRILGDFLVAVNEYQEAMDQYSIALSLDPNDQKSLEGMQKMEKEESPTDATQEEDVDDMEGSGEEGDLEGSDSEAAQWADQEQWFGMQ
Method: (§3) Synthetic peptides used in binding and inhibition assays were […] (CDC20 C-terminus; SEQ ID NO:2), […] (CDH1 C-terminus; SEQ ID NO:1), […] (CDC20 N-terminus; SEQ ID NO:10), and CAVWSLSSCKPGFGVD (control; SEQ ID NO:11).
(§4) Peptide interaction assays were carried out as described in Wendt, K. S., et al., Nat Struct Biol 8:784-8 (2001). Synthetic peptides (see above) were immobilized via N-terminal cysteine residues onto maleinimide-activated POROS matrix ([…]) in 0.1 M HEPES, pH 7.9 for 3 hours. After washing with slightly acidic buffers, 100 μg of the resulting matrix were incubated with insect cell lysates containing recombinant APC subunits, or with fractions from anion chromatography, in total volumes of […] of TBS/T pH 7.5. After stringent washing in TBS/T 0.5 M NaCl, samples were analyzed by SDS-PAGE and immunoblotted with 12CA5 anti-HA antibodies or antibodies against APC subunits.
(§5) To test if APC3 would also interact with the C-termini of CDH1 and its related activator CDC20, insect cell lysates containing recombinantly expressed APC3 were incubated with synthetic peptides coupled to a matrix through their N-terminus. After washing, peptide-bound material was analyzed by western blot. […] In budding yeast, which lacks APC7, they share Cdc27p as their closest homologue.
(§6) In order to exclude any non-specific effects caused by incorrect folding of recombinantly expressed proteins, an alternative source of APC subunits was used in the peptide binding assays. As described above, late-eluting fractions from the ReSource Q column contained considerable amounts of the TPR subunits APC3, APC6, and APC7, while other subunits were found in lower abundance (FIG. 10).
Lastly, the region in APC7 responsible for binding to IR peptides was mapped.

[3] = target: T3, APC5 (Homo sapiens, UniProt Q9UJX4); assay: Peptide binding assay (matrix-coupled peptides), APC5; details: insect cell lysates; western blot
T3 construct: HisHA; made in house; host or cells: Sf9 or Hi5 insect cells (baculovirus), used as lysate
T3 sequence (Q9UJX4 whole entry): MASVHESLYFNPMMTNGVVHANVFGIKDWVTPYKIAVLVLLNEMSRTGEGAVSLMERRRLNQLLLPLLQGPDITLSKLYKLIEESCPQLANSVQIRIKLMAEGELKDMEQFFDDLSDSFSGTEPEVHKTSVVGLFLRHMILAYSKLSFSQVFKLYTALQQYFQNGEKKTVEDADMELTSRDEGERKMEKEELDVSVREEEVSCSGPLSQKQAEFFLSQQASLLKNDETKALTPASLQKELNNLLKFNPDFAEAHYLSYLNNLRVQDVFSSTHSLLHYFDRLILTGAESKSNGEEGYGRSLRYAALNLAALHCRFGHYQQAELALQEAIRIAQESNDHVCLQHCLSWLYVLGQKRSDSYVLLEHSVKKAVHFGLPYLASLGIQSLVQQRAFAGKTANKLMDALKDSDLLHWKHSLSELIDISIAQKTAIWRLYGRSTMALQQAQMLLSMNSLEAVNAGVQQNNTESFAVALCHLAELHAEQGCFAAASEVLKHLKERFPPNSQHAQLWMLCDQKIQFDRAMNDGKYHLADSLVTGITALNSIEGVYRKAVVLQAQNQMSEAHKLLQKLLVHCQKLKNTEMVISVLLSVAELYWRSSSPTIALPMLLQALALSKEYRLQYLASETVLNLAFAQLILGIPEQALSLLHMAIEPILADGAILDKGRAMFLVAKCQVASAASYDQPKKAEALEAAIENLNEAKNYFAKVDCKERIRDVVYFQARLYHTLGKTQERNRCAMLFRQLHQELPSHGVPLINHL
Method: as §3, §4, §5

[4] = target: T4, holo-APC (Homo sapiens, UniProt P30260+Q9UJX3); assay: Peptide binding assay with holo-APC containing fractions; details: APC-containing anion exchange fractions
T4 construct: endogenous in cells; host or cells: HeLa cells, Source15Q fractions eluting around 450 mM KCl
Method: as §3
Pellets from 5×10^9 logarithmically grown HeLa cells (4C, Belgium) were lysed in 20 mM TrisCl pH7.7, 150 mM KCl, 0.5 mM DTT, 0.1% Tween-20, Protease Inhibitor mix (Sigma) using a french press and cleared by 100,000×g centrifugation for 1 h. After filtration through a 0.45 μm filter, extracts were loaded onto a 60 ml Source15Q anion exchange column (Amersham) at 4 ml/min. The column was washed with 20 mM Tris-Cl pH7.7, 150 mM KCl, 0.5 mM DTT until a drop in A280 indicated the end of the flowthrough. Elution was carried out with a gradient from 150 mM to 600 mM KCl. […]
Peptide interaction assays were carried out as described in Wendt, K. S., et al., Nat Struct Biol 8:784-8 (2001). […] After stringent washing in TBS/T 0.5 M NaCl, samples were analyzed by SDS-PAGE and immunoblotted with 12CA5 anti-HA antibodies or antibodies against APC subunits.
It was tested if CDH1's C-terminus would be sufficient to interact with holo-APC. For this, APC-containing fractions were incubated with the peptide matrix and analyzed for binding of APC by detection of all subunits. […]

[5] = target: T5, APC8 (Homo sapiens, UniProt Q9UJX2); assay: Peptide binding assay (matrix-coupled peptides), APC8; details: insect cell lysates; western blot
T5 construct: HisHA; made in house; host or cells: Sf9 or Hi5 insect cells (baculovirus), used as lysate
T5 sequence (Q9UJX2 whole entry): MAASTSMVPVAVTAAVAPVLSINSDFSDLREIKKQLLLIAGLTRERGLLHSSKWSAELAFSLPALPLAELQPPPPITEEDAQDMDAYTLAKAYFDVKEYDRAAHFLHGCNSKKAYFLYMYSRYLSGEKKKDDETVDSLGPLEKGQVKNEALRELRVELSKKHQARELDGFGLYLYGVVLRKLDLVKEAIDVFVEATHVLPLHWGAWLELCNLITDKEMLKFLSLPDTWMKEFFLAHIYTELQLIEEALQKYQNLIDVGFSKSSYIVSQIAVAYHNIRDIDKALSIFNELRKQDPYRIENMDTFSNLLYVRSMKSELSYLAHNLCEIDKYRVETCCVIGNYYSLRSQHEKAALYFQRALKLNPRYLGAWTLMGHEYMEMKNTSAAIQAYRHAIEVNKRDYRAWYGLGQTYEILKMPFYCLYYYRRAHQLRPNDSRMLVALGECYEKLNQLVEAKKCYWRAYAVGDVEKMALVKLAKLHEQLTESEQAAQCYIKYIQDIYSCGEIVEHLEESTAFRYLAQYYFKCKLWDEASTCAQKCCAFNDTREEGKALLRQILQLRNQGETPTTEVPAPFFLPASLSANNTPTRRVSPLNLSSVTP
Method: as §3, §4, §5

[6] = target: T6, CDC26 (Homo sapiens, UniProt Q8NHZ8); assay: Peptide binding assay (matrix-coupled peptides), CDC26; details: late-eluting Q column fractions from HeLa extracts; listed as CDH1 peptide
T6 construct: endogenous in cells; host or cells: HeLa cells, late-eluting Source15Q fractions
T6 sequence (Q8NHZ8 whole entry): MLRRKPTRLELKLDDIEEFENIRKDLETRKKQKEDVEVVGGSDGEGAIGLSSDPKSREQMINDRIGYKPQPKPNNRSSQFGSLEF
Method: as §3, §4, §6

[7] = target: T7, APC6 (Homo sapiens, UniProt Q13042); assay: Peptide binding assay (matrix-coupled peptides), APC6; details: for binding of recombinant APC6 to matrix-coupled peptide: insect cell lysates, western blot
T7 construct: HisHA; made in house; host or cells: Sf9 or Hi5 insect cells (baculovirus), used as lysate
T7 sequence (Q13042 whole entry): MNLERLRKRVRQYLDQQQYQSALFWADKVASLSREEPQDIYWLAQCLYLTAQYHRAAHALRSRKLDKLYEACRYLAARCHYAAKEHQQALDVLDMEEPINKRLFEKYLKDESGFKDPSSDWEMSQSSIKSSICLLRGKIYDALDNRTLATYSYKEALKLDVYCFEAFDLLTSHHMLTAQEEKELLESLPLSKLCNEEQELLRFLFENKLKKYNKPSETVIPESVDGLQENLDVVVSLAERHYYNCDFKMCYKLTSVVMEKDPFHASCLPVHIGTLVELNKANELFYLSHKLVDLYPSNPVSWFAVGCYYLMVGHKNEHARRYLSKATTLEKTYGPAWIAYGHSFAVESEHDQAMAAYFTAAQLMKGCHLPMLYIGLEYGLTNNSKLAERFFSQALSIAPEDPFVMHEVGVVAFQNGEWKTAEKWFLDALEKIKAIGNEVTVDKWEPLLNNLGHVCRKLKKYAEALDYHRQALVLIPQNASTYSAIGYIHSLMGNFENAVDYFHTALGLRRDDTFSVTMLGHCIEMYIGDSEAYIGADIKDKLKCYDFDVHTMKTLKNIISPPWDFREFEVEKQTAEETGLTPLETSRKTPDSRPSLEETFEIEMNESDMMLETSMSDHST
Method: as §3, §4, §5, §6

[8] = target: T8, APC3 (Homo sapiens, UniProt P30260); assay: Peptide binding assay (matrix-coupled peptides), APC3
T8 construct: HisHA; made in house; host or cells: Sf9 or Hi5 insect cells (baculovirus), used as lysate
T8 sequence (P30260 whole entry): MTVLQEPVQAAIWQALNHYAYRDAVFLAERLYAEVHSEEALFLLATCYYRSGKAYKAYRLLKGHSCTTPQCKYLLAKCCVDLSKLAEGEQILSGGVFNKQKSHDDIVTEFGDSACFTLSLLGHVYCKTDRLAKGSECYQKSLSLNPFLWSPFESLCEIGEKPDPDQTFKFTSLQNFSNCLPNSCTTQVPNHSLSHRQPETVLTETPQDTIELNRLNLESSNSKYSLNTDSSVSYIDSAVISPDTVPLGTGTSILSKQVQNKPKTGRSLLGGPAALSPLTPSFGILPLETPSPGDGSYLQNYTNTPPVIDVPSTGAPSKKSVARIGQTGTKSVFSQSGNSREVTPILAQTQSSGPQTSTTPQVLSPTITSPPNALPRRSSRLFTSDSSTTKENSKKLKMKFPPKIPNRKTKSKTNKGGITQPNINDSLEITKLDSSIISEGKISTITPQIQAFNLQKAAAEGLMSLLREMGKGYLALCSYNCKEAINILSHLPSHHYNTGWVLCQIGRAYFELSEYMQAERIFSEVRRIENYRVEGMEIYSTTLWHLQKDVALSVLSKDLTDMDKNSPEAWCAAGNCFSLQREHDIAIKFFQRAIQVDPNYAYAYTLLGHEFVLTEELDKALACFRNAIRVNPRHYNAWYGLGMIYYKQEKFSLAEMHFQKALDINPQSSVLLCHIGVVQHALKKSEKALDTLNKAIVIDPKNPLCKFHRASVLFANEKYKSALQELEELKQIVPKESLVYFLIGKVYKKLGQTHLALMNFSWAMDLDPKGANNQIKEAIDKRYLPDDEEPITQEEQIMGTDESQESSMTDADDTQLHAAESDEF
Method: as §3, §4, §5, §6

[9] = target: T9, binding of recombinant CDH1 to APC (Homo sapiens, UniProt P30260+Q9UJX3); assay: CDH1 binding assay with competing peptides; details: peptides at 1 mg/ml; for effect of peptide on CDH1 binding to APC: quantitative immunoblotting with radiolabeled antibodies
T9 construct: endogenous in cells; host or cells: APC immunopurified from HeLa cell extracts; CDH1 recombinant, made in house
Method: as §1, §2

[10] = target: T10, recombinant HisHA-tagged APC5 (UniProt Q9UJX4 1-755); assay: matrix-coupled peptide pull-down from insect cell lysate, western blot
T10 construct: Expressed with baculovirus in insect cells; used as lysate; not shown: HisHA tag
T10 sequence (Q9UJX4 whole entry): as the sequence (Q9UJX4 whole entry) above
Method: as §4
(§7) To test if APC3 would also interact with the C-termini of CDH1 and its related activator CDC20, insect cell lysates containing recombinantly expressed APC3 were incubated with synthetic peptides coupled to a matrix through their N-terminus. After washing, peptide-bound material was analyzed by western blot. […] APC7, on the other hand, interacted strongly with the CDH1 C-terminus and moderately with CDC20's C-terminus (FIG. 5A), in a manner very similar to APC3. […] In budding yeast, which lacks APC7, they share Cdc27p as their closest homologue.

[11] = target: T11, recombinant HisHA-tagged APC8 (UniProt Q9UJX2 1-597); assay: as above
T11 construct: Expressed with baculovirus in insect cells; used as lysate; also called APC8/CDC23; not shown: HisHA tag
T11 sequence (Q9UJX2 whole entry): as the sequence (Q9UJX2 whole entry) above
Method: as §4, §7

[12] = target: native CDC26 from late-eluting anion exchange fractions of HeLa extract (human, UniProt Q8NHZ8 1-85); assay: matrix-coupled peptide pull-down from late-eluting Q column fractions, western blot
native CDC26 from late-eluting anion exchange fractions of HeLa extract, sequence (Q8NHZ8 whole entry): as the sequence (Q8NHZ8 whole entry) above
Method: as §4, §6

[13] = late-eluting Q column fractions from HeLa extracts
[14] = listed as C-terminal CDH1 peptide
[15] = listed as C-terminal peptide of CDH1
[16] = recombinant APC3 in insect cell lysates, western blot
[17] = listed as C-terminal CDC20 peptide

| Molecule | effect of peptide on APC activation (ubiquitination activity) [1] | binding of recombinant APC7 to matrix-coupled peptide [2] | binding of recombinant APC5 to matrix-coupled peptide [3] | binding of holo-APC (all known subunits) to peptide matrix [4] | binding of recombinant APC8 to matrix-coupled peptide [5] | binding of recombinant APC6 to matrix-coupled peptide [7] | binding of recombinant APC3 to matrix-coupled peptide [8, 16] | binding result [10] | binding result [11] | further results |
| --- | --- | --- | --- | --- | --- | --- | --- | --- | --- | --- |
| CESDLHSLLQLDAPIPNAPPARW (listed as Homo sapiens) [N-terminal CDC20 peptide, synthetic peptide of the CDC20 N-terminus used as control, reference compound] | no effect | – | – | – | – | – | – | – | – | – |
| CFSKTRSTKESVSVLNLFTRIR (listed as Homo sapiens) [CDH1 C-terminal peptide, IR peptide; authentic human CDH1 C-terminus] | – | interacted strongly | interacted with neither | strongly enriched | did not bind | bound only in low amounts | even stronger binding | – | – | binding of native APC7 to peptide matrix [2, 13]: significantly retained; effect of peptide on APC activation (ubiquitination activity) [1, 14]: inhibit; effect of peptide on APC activation (ubiquitination activity) [1, 15]: blocked APC activation efficiently; binding of CDC26 to peptide matrix [6]: no binding at all; also recorded: did not bind; binding of native APC6 to peptide matrix ([7]; late-eluting Q column fractions from HeLa extracts, listed as CDH1 peptide): did not bind; binding of native APC3 to peptide matrix [8, 13]: significantly retained; inhibitory effect compared with the CDC20 C-terminal peptide ([9]; comparison of the two C-terminal peptides): stronger effect; effect of peptide on CDH1 binding to APC [9, 14]: inhibit; effect of peptide on CDH1 binding to APC [9, 15]: diminished binding of CDH1 |
| CLRREREKASTSKSSLIHQGIR (listed as Homo sapiens) [C-terminal peptide of CDC20, IR peptide; authentic human CDC20 C-terminus] | blocked APC activation efficiently | moderately | interacted with neither | – | did not bind | bound only in low amounts | – | – | – | effect of peptide on APC activation (ubiquitination activity) [1, 17]: inhibit; input APC3 bound to matrix-coupled peptide ([8]; recombinant APC3 in insect cell lysates, western blot, % of input): about 10%; effect of peptide on CDH1 binding to APC [9]: diminished binding of CDH1; effect of peptide on CDH1 binding to APC [9, 17]: inhibit |

The next lines start with results.

| effect of peptide on APC activation (ubiquitination activity) [1] | binding of recombinant APC7 to matrix-coupled peptide [2] | binding of recombinant APC5 to matrix-coupled peptide [3] | binding of holo-APC (all known subunits) to peptide matrix [4] | binding of recombinant APC8 to matrix-coupled peptide [5] | binding of recombinant APC6 to matrix-coupled peptide [7] | binding of recombinant APC3 to matrix-coupled peptide [8, 16] | binding result [10] | binding result [11] | Molecule | further results |
| --- | --- | --- | --- | --- | --- | --- | --- | --- | --- | --- |
| – | – | – | not | – | low amounts | did not bind | – | – | CAVWSLSSCKPGFGVD (Control peptide) [reference compound] | – |
| – | – | – | – | – | – | – | no binding | no binding | CLRREREKASTSKSSLIHQGIR (in the peptide binding assays immobilized via the N-terminal cysteine onto maleinimide-activated POROS matrix; free peptide in the competition assays, Synthetic peptide; also called CDC20 C-terminus; CDC20 peptide) [CDC20 C-terminal peptide CLRREREKASTSKSSLIHQGIR] | – |
| – | – | – | – | – | – | – | no binding | no binding | CFSKTRSTKESVSVLNLFTRIR (in the peptide binding assays immobilized via the N-terminal cysteine onto maleinimide-activated POROS matrix; free peptide in the competition assays, Synthetic peptide; also called CDH1 C-terminus; CDH1 peptide) [CDH1 C-terminal peptide CFSKTRSTKESVSVLNLFTRIR] | binding result [12]: no binding |
